Data on four molecules can be found in US20170146535A1 (SPRING BIOSCIENCE, published 2017).

For the assay, the target named is human indoleamine 2,3-dioxygenase 1 (IDO1) (human, UniProt P14902 1-403). The assay is described as follows: IHC on FFPE HeLa cells (untreated or IFN-gamma treated) and FFPE human tissues. The method, then: The anti-IDO1 antibodies generated in Example 1 were used in further IHC analyses. For IHC analyses, tissue sections were incubated with the antibodies for 16 min followed by standard washes and secondary detection with Optiview DAB IHC Detection Kit (Ventana Medical System, Inc., Tucson, Ariz.). The specificity of each antibody was assessed on formalin-fixed, paraffin-embedded (FFPE) cells with different IDO1 expression levels (human cervical cancer HeLa cells that are either untreated as control (negative) or treated with interferon-γ (high expression); see FIGS. 2A-2b) or from different tissue types (Tonsil, Thymus, Colon, Endometrial adenocarcinoma, Ovarian adenocarcinoma, Pancreatic adenocarcinoma, and Stomach adenocarcinoma; see FIGS. 3A-3G).
Sequence of human indoleamine 2,3-dioxygenase 1 (IDO1) (P14902 whole entry): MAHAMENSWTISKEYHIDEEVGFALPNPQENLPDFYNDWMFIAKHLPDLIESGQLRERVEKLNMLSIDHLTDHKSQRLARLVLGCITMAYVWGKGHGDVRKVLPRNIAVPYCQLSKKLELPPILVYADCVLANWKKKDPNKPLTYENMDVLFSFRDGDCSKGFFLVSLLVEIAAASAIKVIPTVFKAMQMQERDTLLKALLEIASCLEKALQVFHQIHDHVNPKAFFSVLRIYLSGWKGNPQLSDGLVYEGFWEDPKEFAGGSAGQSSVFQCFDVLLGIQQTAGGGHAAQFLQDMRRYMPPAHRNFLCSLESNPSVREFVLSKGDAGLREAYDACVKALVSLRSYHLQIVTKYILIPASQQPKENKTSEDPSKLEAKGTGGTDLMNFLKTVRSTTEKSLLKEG

B1: J6H15L16 antibody (antibody, V domains shown)
VH: QEQLVESGGGLVQPEGSLTLTCTASGFSFSTNYWICWVRQAPGKGLEWTACIYIGGRGSIYYASWAKGRFTISKTSSTTVTLQMTSLTAADTATYFCARDLTTAYGATDLRFWGPGTLVTVSS
VL: DVVMTQTPSPVSAAVGGTVSISCQSSQSVGDNNRLSWFQQKPGQPPKLLIYSASTLASGVPSRFKGSGSGTEYTLTISGVQCDDAATYYCLGEFSGSDEDVFGGGTEVVVK
notes: the constant regions are not
Consider B1, for which the binding result is “binds”.

B2: J6H20L16 antibody (antibody, V domains shown)
VH: QEQLVESGGGLVQPEGSLTLTCTASGFSFSTNYWICWVRQAPGKGLEWTACIYIGGRGSIYYASWAKGRFTISKTSSTTVTLQMTSLTAADTATYSCARDLTTAYGATDLRFWGPGTLVTVSS
VL: DVVMTQTPSPVSAAVGGTVSISCQSSQSVGDNNRLSWFQQKPGQPPKLLIYSASTLASGVPSRFKGSGSGTEYTLTISGVQCDDAATYYCLGEFSGSDEDVFGGGTEVVVK
notes: the constant regions are not
Turning to B2, the binding result was “binds”.

B3: J6H12L16 antibody (antibody, V domains shown)
VH: QEQLVESGGGLVRPEGSLTLTCTASGFSFSTNYWICWVRQAPGKGLEWTACIYIGGRGSIYYASWAKGRFTISKTSSTTVTLQMTSLTAADTATYFCARDLTTAYGATDLRFWGPGTLVTVSS
VL: DVVMTQTPSPVSAAVGGTVSISCQSSQSVGDNNRLSWFQQKPGQPPKLLIYSASTLASGVPSRFKGSGSGTEYTLTISGVQCDDAATYYCLGEFSGSDEDVFGGGTEVVVK
notes: the constant regions are not
Take B3: the binding result is “binds”.

B4: anti-IDO1 antibody SP260 (antibody, V domains shown)
VH: QEQLVESGGGLVQPEGSLTLTCTASGFSFSTNYWICWVRQAPGKGLEWTACIYVGGRGSIYYASWAKGRFTISKTSSTTVTLQMTSLTAADTATYFCARDLTTAYGATDLRFWGPGTLVTVSS
VL: DVVMTQTPSPVSAAVGGTVSISCQSSQSVGDNNRLSWFQQKPGQPPKLLIYSASTLASGVPSRFKGSGSGTEYTLTISGVQCDDAATYYCLGEFSGSDEDVFGGGTEVVVK
notes: the constant regions are not
In the case of B4, the binding result is listed as “binds”.
